Source: the supplement of paper PMC10567573

B1: PLK2 (parent)
chain: MELLRTITYQPAASTKMCEQALGK
B2: DLC1 (parent)
chain: KRSWEEHVTHWMGQPFNSDDRNTA

Variants of: B1
Assay: protein stability index of a GFP-peptide fusion (GPS, HEK-293T) (PSI 1-6); higher = more stable
Conditions: c terminus: a fixed tail appended
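Also: lentivirally expressed fusions sorted by FACS into six bins by GFP to DsRed ratio, PSI derived from sequencing read proportions per bin multiplied by bin number.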

Protein stability index: each site, then its substitutions
A21: H 1.94 | W 3.26 | G 2.42 | L 2.7 | C 2.68 | F 1.94 | M 2.21 | K 1.51 | I 3.11 | R 2.69 | Q 2.98 | S 2 | P 2.28 | Y 2.16 | E 2.46 | T 2.79 | V 2.5 | N 2.22 | D 2.17
M17: T 2.74 | S 2.33 | Y 1.8 | V 2.98 | W 2.46
E19: R 2.59 | G 2.87 | C 2.09 | A 2.59 | D 2.27 | P 3.73 | N 2.28 | H 2.09 | T 2.84 | K 2.63 | S 1.38 | Q 1.52 | Y 2.82 | L 2.52 | V 2.46 | I 2.42 | F 2.15
Q20: P 2.62 | T 3.59 | K 2.22 | R 2.71 | A 2.63 | D 1.95 | F 2.08 | M 3.03 | W 2.02 | C 3.11 | S 1.75 | G 2.7 | I 2.18 | V 1.6 | H 2.51 | E 1.78 | Y 2.58 | L 2.38 | N 1.69
C18: A 3.42 | E 1.96 | T 2.67 | F 2.19 | K 1.61 | M 2.67 | V 2.26 | Q 1.57 | I 2.49 | Y 1.01 | W 2.17 | N 1.95 | G 3 | P 3.07 | S 2.81 | R 2.85 | H 2.34 | D 1.94 | L 2.71
G23: H 2.88 | E 2.22 | T 1.46 | Q 1.87 | L 3.53 | F 2.36 | Y 1.9 | W 3.02 | A 2.64 | S 3.38 | D 1.93 | R 1.34 | M 2.28 | V 1.97 | I 1.97 | P 2.27 | C 2.96 | N 2.37 | K 2.94
L22: E 2.21 | K 1.66 | Y 2.79 | F 2.92 | V 2.82 | P 1.79 | T 2.43 | D 1.87 | M 1.57 | C 2.54 | R 1.89 | S 1.52 | G 3.33 | A 2.29 | I 2.42 | W 2.86 | H 3.36 | Q 2.02 | N 2.31
K24: C 2.46 | N 2.59 | A 2.89 | R 1.98 | L 3.19 | M 3.29 | W 3.92 | Q 1.89 | D 2.73 | S 2.47 | Y 3.96 | E 1.41 | F 3.31 | H 3.08 | I 3.23 | G 1.65 | T 2.21 | V 2.86 | P 2.65

Variants of: B2
Assay: as above
Conditions: c terminus: a fixed tail appended

Protein stability index: each site, then its substitutions
V8: L 3.31 | F 3.34 | R 4.22 | Q 3.86 | P 4.21 | T 3.84 | N 4.13 | I 2.81 | H 4.04 | E 4.24 | W 3.39 | S 3.88 | K 4.26 | D 4.42 | C 3.98 | A 4.13 | Y 3.99 | M 3.66 | G 4.02
E6: S 3.24 | W 2.67 | T 3.15 | A 2.72 | R 3.46 | D 3.06 | V 2.53 | M 2.66 | G 3.48 | Q 3.27 | Y 2.31 | F 2.27 | C 2.87 | L 2.58 | H 3.36 | K 3.32 | N 3.98 | P 3.46 | I 2.44
K1: A 3.57 | D 4.26 | N 3.63 | Q 3.76 | F 3.16 | C 2.54 | M 2.73 | P 3.6 | G 3.21 | S 3.46 | I 2.54 | R 2.99 | H 2.69 | Y 2.81 | V 2.95 | W 2.49 | E 4.15 | L 3.03 | T 3.35
T9: D 4.32 | A 2.97 | E 3.84 | N 3.75 | P 3.54 | K 3.59 | C 2.6 | L 2.53 | M 3.48 | W 2.67 | I 2.62 | F 2.11 | R 3.1 | S 2.38 | Y 3.04 | Q 3.6 | V 2.75 | H 3.46 | G 3.14
H7: A 3.54 | L 2.64 | S 3.71 | I 3.75 | E 3.1 | R 3.08 | V 3.18 | N 4.35 | D 3.68 | W 2.82 | P 4.2 | T 3.21 | Y 2.29 | C 3.33 | K 3.44 | Q 2.75 | F 2.84 | G 4.29 | M 2.84
E5: A 2.55 | C 2.17 | S 3.41 | I 1.92 | D 3.94 | L 2.47 | P 3.95 | H 3.56 | T 2.4 | W 3.37 | Q 3.1 | V 2.65 | N 3.5 | Y 3.04 | M 3.13 | R 2.64 | G 3.07 | F 3.16 | K 2.58
S3: W 3 | H 3.72 | I 3.78 | V 3.94 | T 2.13 | E 4.41 | F 3.18 | L 3.37 | G 3.44 | M 3.35 | A 3.44 | N 3.81 | Q 3.54 | P 3.6 | C 2.24 | Y 3.01 | K 3.47 | D 4.33 | R 3.34
W4: C 4.2 | A 4.41 | S 4.32 | Y 4.08 | E 5.05 | L 3.45 | D 5.21 | Q 4.71 | N 4.95 | T 4.76 | R 4.62 | H 4.44 | V 4.36 | P 4.45 | I 4.41 | F 4.09 | M 3.95 | K 4.48 | G 4.38
R2: N 3.67 | E 3.61 | H 3.08 | Y 3.25 | P 3.37 | D 4.37 | A 3.11 | T 3.7 | C 2.52 | L 3.28 | V 3.26 | S 3.79 | W 2.98 | M 2.79 | F 3.62 | I 2.71 | Q 3.11 | G 3.61 | K 2.6
W11: D 2.33 | C 2.48 | E 1.57 | H 2.95 | A 2.97 | I 3.01 | F 2.7 | G 2.69
H10: Y 1.92 | T 2.32 | R 2.19 | G 2.57 | I 1.95 | F 1.92 | P 3.52 | E 3.1 | Q 2.56 | D 3.39 | K 2.53 | S 2.73 | A 2.17 | M 1.99 | W 2.31 | N 2.58 | L 2.33 | V 2.16 | C 2.92
